Experimental data taken from patent US20260242419A1, “A CYCLIC PEPTIDE FOR TRAPPING INTERLEUKIN-1 BETA” (Merck Sharp & Dohme LLC, priority 2023, published 2026).
Starred links: 1 amine or outer side, 2 acyl side, 3 side chain; linkers in the order of their positions; H or OH if unused. Non-standard residues stand in square brackets, D forms with d. dProc3CH2Pyrim = (2R,3S)-3-(pyrimidin-5-ylmethyl)pyrrolidine-2-carboxylic acid, O=C([C@H]1[C@@H](Cc2cncnc2)CCN1[*:1])[*:2]; TyrEtNAc = (2S)-3-[4-(2-acetamidoethoxy)phenyl]-2-amino-propanoic acid, CC(=O)NCCOc1ccc(C[C@H](N[*:1])C(=O)[*:2])cc1; dProc3Bn = (2R,3S)-3-benzylpyrrolidine-2-carboxylic acid, O=C([C@H]1[C@@H](Cc2ccccc2)CCN1[*:1])[*:2]; dProc4Bn = (2R,4R)-4-benzylpyrrolidine-2-carboxylic acid, O=C([C@H]1C[C@@H](Cc2ccccc2)CN1[*:1])[*:2]; Phe(4-(5-CO2H-2-pyrimidyl)) = N[C@@H](Cc1ccc(-c2ncc(C(=O)O)cn2)cc1)C(=O)O; Trp(βS-Me,4-F) = C[C@@H](c1c[nH]c2cccc(F)c12)[C@H](N)C(=O)O; 3Aminoazetidine3carboxyl = O=C(C1(N[*:1])CN([*:3])C1)[*:2]; Bip(4'-COOH) = N[C@@H](Cc1ccc(-c2ccc(C(=O)O)cc2)cc1)C(=O)O; dPro(4R-Bzl(4-F)) = O=C(O)[C@H]1C[C@@H](Cc2ccc(F)cc2)CN1; Ala(pyrimidin-5-yl) = N[C@@H](Cc1cncnc1)C(=O)O; Phe(4-COOH) = N[C@@H](Cc1ccc(C(=O)O)cc1)C(=O)O; Pro(cis-4-F) = O=C(O)[C@@H]1C[C@H](F)CN1; 2Pal = N[C@@H](Cc1ccccn1)C(=O)O; 3Pal = N[C@@H](Cc1cccnc1)C(=O)O; 4Pal = N[C@@H](Cc1ccncc1)C(=O)O; Orn = NCCC[C@H](N)C(=O)O; Dab = NCC[C@H](N)C(=O)O; Aib = CC(C)(N)C(=O)O

B1: SEQ ID NO: 78 (peptide)
peptide: cyclo([TyrEtNAc][4Pal][Phe(4-COOH)][Pro(cis-4-F)][Trp(βS-Me,4-F)][Aib]EW[Aib][Ala(pyrimidin-5-yl)]Q[Dab]G[dProc3Bn])
SMILES: CC(=O)NCCOc1ccc(C[C@@H]2NC(=O)[C@H]3[C@@H](Cc4ccccc4)CCN3C(=O)CNC(=O)[C@H](CCN)NC(=O)[C@H](CCC(N)=O)NC(=O)[C@H](Cc3cncnc3)NC(=O)C(C)(C)NC(=O)[C@H](Cc3c[nH]c4ccccc34)NC(=O)[C@H](CCC(=O)O)NC(=O)C(C)(C)NC(=O)[C@H]([C@@H](C)c3c[nH]c4cccc(F)c34)NC(=O)[C@@H]3C[C@H](F)CN3C(=O)[C@H](Cc3ccc(C(=O)O)cc3)NC(=O)[C@H](Cc3ccncc3)NC2=O)cc1
B2: SEQ ID NO: 8 (peptide)
peptide: cyclo([Bip(4'-COOH)][4Pal][Phe(4-COOH)]G[Pro(cis-4-F)][Trp(βS-Me,4-F)][Aib]EW[Aib][Ala(pyrimidin-5-yl)]Q[Orn]G[dPro(4R-Bzl(4-F))])
SMILES: C[C@@H](c1c[nH]c2cccc(F)c12)[C@@H]1NC(=O)[C@@H]2C[C@H](F)CN2C(=O)CNC(=O)[C@H](Cc2ccc(C(=O)O)cc2)NC(=O)[C@H](Cc2ccncc2)NC(=O)[C@H](Cc2ccc(-c3ccc(C(=O)O)cc3)cc2)NC(=O)[C@H]2C[C@@H](Cc3ccc(F)cc3)CN2C(=O)CNC(=O)[C@H](CCCN)NC(=O)[C@H](CCC(N)=O)NC(=O)[C@H](Cc2cncnc2)NC(=O)C(C)(C)NC(=O)[C@H](Cc2c[nH]c3ccccc23)NC(=O)[C@H](CCC(=O)O)NC(=O)C(C)(C)NC1=O
B3: SEQ ID NO: 77 (peptide)
peptide: cyclo([TyrEtNAc][4Pal][Phe(4-COOH)][Pro(cis-4-F)][Trp(βS-Me,4-F)][Aib]EW[Aib][Ala(pyrimidin-5-yl)]QSG[dProc3Bn])
SMILES: CC(=O)NCCOc1ccc(C[C@@H]2NC(=O)[C@H]3[C@@H](Cc4ccccc4)CCN3C(=O)CNC(=O)[C@H](CO)NC(=O)[C@H](CCC(N)=O)NC(=O)[C@H](Cc3cncnc3)NC(=O)C(C)(C)NC(=O)[C@H](Cc3c[nH]c4ccccc34)NC(=O)[C@H](CCC(=O)O)NC(=O)C(C)(C)NC(=O)[C@H]([C@@H](C)c3c[nH]c4cccc(F)c34)NC(=O)[C@@H]3C[C@H](F)CN3C(=O)[C@H](Cc3ccc(C(=O)O)cc3)NC(=O)[C@H](Cc3ccncc3)NC2=O)cc1
B4: SEQ ID NO: 70 (peptide)
peptide: cyclo([TyrEtNAc][4Pal][Phe(4-COOH)][Pro(cis-4-F)][Trp(βS-Me,4-F)][Aib]EW[Aib][Ala(pyrimidin-5-yl)]Q[Dab]G[dProc3CH2Pyrim])
SMILES: CC(=O)NCCOc1ccc(C[C@@H]2NC(=O)[C@H]3[C@@H](Cc4cncnc4)CCN3C(=O)CNC(=O)[C@H](CCN)NC(=O)[C@H](CCC(N)=O)NC(=O)[C@H](Cc3cncnc3)NC(=O)C(C)(C)NC(=O)[C@H](Cc3c[nH]c4ccccc34)NC(=O)[C@H](CCC(=O)O)NC(=O)C(C)(C)NC(=O)[C@H]([C@@H](C)c3c[nH]c4cccc(F)c34)NC(=O)[C@@H]3C[C@H](F)CN3C(=O)[C@H](Cc3ccc(C(=O)O)cc3)NC(=O)[C@H](Cc3ccncc3)NC2=O)cc1
B5: SEQ ID NO: 75 (peptide)
peptide: cyclo([Bip(4'-COOH)][4Pal][Phe(4-COOH)]G[Pro(cis-4-F)][Trp(βS-Me,4-F)][Aib]EW[Aib][Ala(pyrimidin-5-yl)]QRG[dPro(4R-Bzl(4-F))])
SMILES: C[C@@H](c1c[nH]c2cccc(F)c12)[C@@H]1NC(=O)[C@@H]2C[C@H](F)CN2C(=O)CNC(=O)[C@H](Cc2ccc(C(=O)O)cc2)NC(=O)[C@H](Cc2ccncc2)NC(=O)[C@H](Cc2ccc(-c3ccc(C(=O)O)cc3)cc2)NC(=O)[C@H]2C[C@@H](Cc3ccc(F)cc3)CN2C(=O)CNC(=O)[C@H](CCCNC(=N)N)NC(=O)[C@H](CCC(N)=O)NC(=O)[C@H](Cc2cncnc2)NC(=O)C(C)(C)NC(=O)[C@H](Cc2c[nH]c3ccccc23)NC(=O)[C@H](CCC(=O)O)NC(=O)C(C)(C)NC1=O
B6: SEQ ID NO: 72 (peptide)
peptide: cyclo([Bip(4'-COOH)][4Pal][Phe(4-COOH)]G[Pro(cis-4-F)][Trp(βS-Me,4-F)][Aib]EW[Aib][3Pal]Q[Dab]G[dPro(4R-Bzl(4-F))])
B7: SEQ ID NO: 73 (peptide)
peptide: cyclo([Bip(4'-COOH)][4Pal][Phe(4-COOH)]G[Pro(cis-4-F)][Trp(βS-Me,4-F)][Aib]EW[Aib][2Pal]Q[Dab]G[dPro(4R-Bzl(4-F))])
SMILES: C[C@@H](c1c[nH]c2cccc(F)c12)[C@@H]1NC(=O)[C@@H]2C[C@H](F)CN2C(=O)CNC(=O)[C@H](Cc2ccc(C(=O)O)cc2)NC(=O)[C@H](Cc2ccncc2)NC(=O)[C@H](Cc2ccc(-c3ccc(C(=O)O)cc3)cc2)NC(=O)[C@H]2C[C@@H](Cc3ccc(F)cc3)CN2C(=O)CNC(=O)[C@H](CCN)NC(=O)[C@H](CCC(N)=O)NC(=O)[C@H](Cc2ccccn2)NC(=O)C(C)(C)NC(=O)[C@H](Cc2c[nH]c3ccccc23)NC(=O)[C@H](CCC(=O)O)NC(=O)C(C)(C)NC1=O
B8: SEQ ID NO: 79 (peptide)
peptide: cyclo([TyrEtNAc][4Pal][Phe(4-COOH)][Pro(cis-4-F)][Trp(βS-Me,4-F)][Aib]EW[Aib][Ala(pyrimidin-5-yl)]QSG[dProc4Bn])
SMILES: CC(=O)NCCOc1ccc(C[C@@H]2NC(=O)[C@H]3C[C@@H](Cc4ccccc4)CN3C(=O)CNC(=O)[C@H](CO)NC(=O)[C@H](CCC(N)=O)NC(=O)[C@H](Cc3cncnc3)NC(=O)C(C)(C)NC(=O)[C@H](Cc3c[nH]c4ccccc34)NC(=O)[C@H](CCC(=O)O)NC(=O)C(C)(C)NC(=O)[C@H]([C@@H](C)c3c[nH]c4cccc(F)c34)NC(=O)[C@@H]3C[C@H](F)CN3C(=O)[C@H](Cc3ccc(C(=O)O)cc3)NC(=O)[C@H](Cc3ccncc3)NC2=O)cc1
B9: SEQ ID NO: 71 (peptide)
peptide: cyclo([Bip(4'-COOH)][4Pal][Phe(4-COOH)]G[Pro(cis-4-F)][Trp(βS-Me,4-F)][Aib]EW[Aib][Ala(pyrimidin-5-yl)]Q[Dab]G[dProc3CH2Pyrim])
SMILES: C[C@@H](c1c[nH]c2cccc(F)c12)[C@@H]1NC(=O)[C@@H]2C[C@H](F)CN2C(=O)CNC(=O)[C@H](Cc2ccc(C(=O)O)cc2)NC(=O)[C@H](Cc2ccncc2)NC(=O)[C@H](Cc2ccc(-c3ccc(C(=O)O)cc3)cc2)NC(=O)[C@H]2[C@@H](Cc3cncnc3)CCN2C(=O)CNC(=O)[C@H](CCN)NC(=O)[C@H](CCC(N)=O)NC(=O)[C@H](Cc2cncnc2)NC(=O)C(C)(C)NC(=O)[C@H](Cc2c[nH]c3ccccc23)NC(=O)[C@H](CCC(=O)O)NC(=O)C(C)(C)NC1=O
B10: SEQ ID NO: 76 (peptide)
peptide: cyclo([Bip(4'-COOH)][4Pal][Phe(4-COOH)]G[Pro(cis-4-F)][Trp(βS-Me,4-F)][Aib]EW[Aib][4Pal]QRG[dPro(4R-Bzl(4-F))])
SMILES: C[C@@H](c1c[nH]c2cccc(F)c12)[C@@H]1NC(=O)[C@@H]2C[C@H](F)CN2C(=O)CNC(=O)[C@H](Cc2ccc(C(=O)O)cc2)NC(=O)[C@H](Cc2ccncc2)NC(=O)[C@H](Cc2ccc(-c3ccc(C(=O)O)cc3)cc2)NC(=O)[C@H]2C[C@@H](Cc3ccc(F)cc3)CN2C(=O)CNC(=O)[C@H](CCCNC(=N)N)NC(=O)[C@H](CCC(N)=O)NC(=O)[C@H](Cc2ccncc2)NC(=O)C(C)(C)NC(=O)[C@H](Cc2c[nH]c3ccccc23)NC(=O)[C@H](CCC(=O)O)NC(=O)C(C)(C)NC1=O
B11: SEQ ID NO: 80 (peptide)
peptide: cyclo([TyrEtNAc][4Pal][Phe(4-COOH)][Pro(cis-4-F)][Trp(βS-Me,4-F)][Aib]EW[Aib][Ala(pyrimidin-5-yl)]Q[Dab]G[dProc4Bn])
SMILES: CC(=O)NCCOc1ccc(C[C@@H]2NC(=O)[C@H]3C[C@@H](Cc4ccccc4)CN3C(=O)CNC(=O)[C@H](CCN)NC(=O)[C@H](CCC(N)=O)NC(=O)[C@H](Cc3cncnc3)NC(=O)C(C)(C)NC(=O)[C@H](Cc3c[nH]c4ccccc34)NC(=O)[C@H](CCC(=O)O)NC(=O)C(C)(C)NC(=O)[C@H]([C@@H](C)c3c[nH]c4cccc(F)c34)NC(=O)[C@@H]3C[C@H](F)CN3C(=O)[C@H](Cc3ccc(C(=O)O)cc3)NC(=O)[C@H](Cc3ccncc3)NC2=O)cc1
B12: SEQ ID NO: 74 (peptide)
peptide: cyclo([TyrEtNAc][4Pal][Phe(4-COOH)][Pro(cis-4-F)][Trp(βS-Me,4-F)][Aib]EW[Aib]RQ[Dab]G[dPro(4R-Bzl(4-F))])
SMILES: CC(=O)NCCOc1ccc(C[C@@H]2NC(=O)[C@H]3C[C@@H](Cc4ccc(F)cc4)CN3C(=O)CNC(=O)[C@H](CCN)NC(=O)[C@H](CCC(N)=O)NC(=O)[C@H](CCCNC(=N)N)NC(=O)C(C)(C)NC(=O)[C@H](Cc3c[nH]c4ccccc34)NC(=O)[C@H](CCC(=O)O)NC(=O)C(C)(C)NC(=O)[C@H]([C@@H](C)c3c[nH]c4cccc(F)c34)NC(=O)[C@@H]3C[C@H](F)CN3C(=O)[C@H](Cc3ccc(C(=O)O)cc3)NC(=O)[C@H](Cc3ccncc3)NC2=O)cc1
B13: SEQ ID NO: 81 (peptide)
peptide: cyclo([Phe(4-(5-CO2H-2-pyrimidyl))][4Pal][Phe(4-COOH)]G[Pro(cis-4-F)][Trp(βS-Me,4-F)][Aib]EW[3Aminoazetidine3carboxyl][4Pal]Q[Dab]G[dPro(4R-Bzl(4-F))])
SMILES: C[C@@H](c1c[nH]c2cccc(F)c12)[C@@H]1NC(=O)[C@@H]2C[C@H](F)CN2C(=O)CNC(=O)[C@H](Cc2ccc(C(=O)O)cc2)NC(=O)[C@H](Cc2ccncc2)NC(=O)[C@H](Cc2ccc(-c3ncc(C(=O)O)cn3)cc2)NC(=O)[C@H]2C[C@@H](Cc3ccc(F)cc3)CN2C(=O)CNC(=O)[C@H](CCN)NC(=O)[C@H](CCC(N)=O)NC(=O)[C@H](Cc2ccncc2)NC(=O)C2(CNC2)NC(=O)[C@H](Cc2c[nH]c3ccccc23)NC(=O)[C@H](CCC(=O)O)NC(=O)C(C)(C)NC1=O

Each binder was assayed against Recombinant human IL-1β (BioLegend 579404) (human, UniProt P01584 117-269) (assay: cell-based or functional assay).

Row | MRC5 IC50 | Binder
1 | 0.036 nM | B1
2 | 0.026 nM | B2
3 | 0.079 nM | B3
4 | 0.081 nM | B4
5 | 0.056 nM | B5
6 | 0.027 nM | B6
7 | 0.031 nM | B7
8 | 0.059 nM | B8
9 | 0.058 nM | B9
10 | 0.059 nM | B10
11 | 0.048 nM | B11
12 | 0.072 nM | B12
13 | 0.049 nM | B13
